Experimental data as given in the nanobody polyreactivity screen of Harvey et al. (2022).

Assay: yeast display, Sf9 membrane polyspecificity reagent, FACS + sequencing; frameworks hold sequencing errors
Outline: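 In a synthetic yeast display library (Saccharomyces cerevisiae BJ5465), nanobody expression was induced with galactose for 36–48 hours. FACS gates were set low and high (top ~1%) using anti-HA fluorescence for expression and streptavidin fluorescence for binding of the Sf9 membrane reagent. Each polyreactivity label is drawn from the gate of origin.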

In the case of “QVHLVESRGVLVQAGCSLRLSCAASGRIFTDYAMGWYRQAPRKERELVAAISGSGGSTYYADSVKVRFSISRDNAKNNVYLQMNSLKPEDTAVYYCAARVARRYEWGQGTQVTVSS”, the “polyreactivity (PSR sort gate)” value is reported as “high polyreactivity”.
In the case of “QVQLVESGGGLVQAGGSLRFSCAASGRTFQYYAMGWSRQAPGKERELVAAISQDGGSTYYADSVKGRFTISRDNAKNTVYLQMNSLKPEDTAVYYCAAEVWRSYGYWGQGTQVTVSS”, the “polyreactivity (PSR sort gate)” value is reported as “low polyreactivity”.
In the case of “QVQLVESGGGLVQAGGSLRLSCAASGSILGDYGMGWYRQAPGKEREVVAAITWNGDSTYYADSVKGRFTISRDNAKNTVYLQMNSLKPEDTAVYYCAADLQDYKYYPWYGYWGQGTQVTVSS”, the “polyreactivity (PSR sort gate)” value is reported as “low polyreactivity”.
With “QVQLVESGGGLVQAGGSLRLSCAASGSIFSSYAMGWYRQAPGKERELVASISSGGSTNYADSVKGRFTISRDNAKNTVYLQMNSLKPEDTAVYYCNVDLYNWRGDSTGYDYWGQGTQVTVSS” the “polyreactivity (PSR sort gate)” value was “low polyreactivity”.
With “QVQLVESGGGLVQAGGSLRLSCSASGYIFSKYGMGWYRQAPGKEREFVAAISIRGGNTYYADSVKGRFTISRDNAKNTVYLQMTSLKPEDTAVYYCNALSYGRYLNYRGGMDYWGQGTQVTVSS” the “polyreactivity (PSR sort gate)” value was “high polyreactivity”.
For “QVQLVESGGGLVQAGGSLRLSCAASGFTFYRYAMGWYRQAPGKERELVATISASGGSTYYADSVKGRFTISRDNAKNTVYLQMISLKPEDTAVYYCAVRTIWRFRYDYWGQGTQVTVSS”, the “polyreactivity (PSR sort gate)” value was “high polyreactivity”.
With “QVQRVESGGGLVQAGGSLRLSCAASGSTLYGYALGWYRQAPGKERELVAAISVSGGRTYYADSVKGRFTISRDNAKNTVYLQMNSLKPEDTAVYYCAADGLSPYSGDYWGQGTQVTVSS” the “polyreactivity (PSR sort gate)” value was “high polyreactivity”.
For “QVQLVESGGGLVQAGGSLRLTCAASGSTFVNYTMGWYRQAPGKERELVAAIRYRDGSTYYADSVKGRFTISRDNAKNTVYLQMNSLKPEDTAVYYCNTRITQVGDYIYDYWGQGTQVTVSS”, the “polyreactivity (PSR sort gate)” value was “low polyreactivity”.
In the case of “QVQLVESGGGLVQAGGSLRLSCAASGSIYRYAMGWYRQAPGKERELVAAINFNGGRTYYADSVKGRFTISRDNAKNTVYIQMNSLKPEDTAVYYCAAVRSSNQGGFDYWGQGTQVTVSS”, the “polyreactivity (PSR sort gate)” value is reported as “high polyreactivity”.
With “QVQLVESGGGLVQAGGSLRLSCAASGSTLFNYDMGWYRQAPGKERELVAAFDWGDGTTYYADSVKGRFTISRDNAKNTVYLQMNSLKPEDTAVYYCAAEEFYSPYDYWGQGTQVTVSS” the “polyreactivity (PSR sort gate)” value was “high polyreactivity”.
With “QVQRVESGGGLVQAGGSLRLSCAASGFIFYGNTMGWYREAPGKERELVASITSGSSTHYAYSVKGRFTISRDNAKNTVYLQMNSLKPEDTAVYYCIVDDIQFGKYDYWGQGTQVTVSS” the “polyreactivity (PSR sort gate)” value was “low polyreactivity”.
With “QVQLVESGGGLVQAGGSLRLSCAATGFTFRWYAMGWYRQAPGKERELVAAITSDDNTYYADSVKGRFTISRDNAKNTVYLQMNSLKPEDTAVYYCAAEYADYWTYIMGYWGQGTQVTVSS” the “polyreactivity (PSR sort gate)” value was “low polyreactivity”.
In the case of “QVQLVESGGGLVQAGGSLPLSCAASGSIVTDNAMGWYRQAPGKERELVAANTSSGNTNYADSVKGRFTISRDNAKNTVDLQMKSLKPEDTAVYYCAADSYYTHWTDWLPVGEDYWGQVTQVTVSS”, the “polyreactivity (PSR sort gate)” value is reported as “low polyreactivity”.
In the case of “QVQLLESGGGLVKAGGSLRLSCAASGFTFYRYAMGWYRQAPGKERELVATINYSGGGTYYADSVKGRFTISRDNAKHTVYLQMNSLKPEDTAVYDCAAEDFDYAVLYDYWGQGTQVTVSS”, the “polyreactivity (PSR sort gate)” value is reported as “high polyreactivity”.
With “QVQLVESGGGLVQAGGSLRLSCAASGSIFNDYGKAWYRQAPGKERDLVAAISASGGSTYYADSVKGRFTISRYNAKNPVYLQLNSLNPEDTAVYYCAAYYMGLYYLYVDALGYDYWGQGTQVTVSS” the “polyreactivity (PSR sort gate)” value was “low polyreactivity”.
With “QVQLVESGGGLVQAGGSLRLSCAASGRTFAVYAMGWYRPAPGKERELVAGITSGGSTNYADSVKGRFTISRDNAKNTVYLQMNSLKPEDTAVYYCAAENVYAGFGFVSIGDYWGQGTQVTVSS” the “polyreactivity (PSR sort gate)” value was “low polyreactivity”.
For “QVQLVESGGGLVQAGGSLRLSCAASGRIFTYYAMGWYRQAPGKVRELVAAISSGGSTYYADSVKGRFTISRDNAKTTVYLQMNSLTPEDTAVYYCAAEPSYYPYLSPTYGYWGQGTQVTVSS”, the “polyreactivity (PSR sort gate)” value was “low polyreactivity”.
For “QVQLVESGGGLVQAGGSLRLSCAASGSTFSDNAMGGYRQAPGKERELVAAINETGGSTYYADSVKGRFTISRDNAKNTVYLQMNSLKPEDTAVYYCNADIDPYGATYAIEYDYWGQGTQVTVSS”, the “polyreactivity (PSR sort gate)” value was “low polyreactivity”.
With “QVQLVESGGGLVQAGGSLRLSCAASGFTFSWYAMGWYRQAPGKERELVAAINADGGTTYYADSVKGRFTISRDNAKNTVYLQMNSLKPEDTAVYYCAVPYPYGYEYDHWGQGTQVTVSS” the “polyreactivity (PSR sort gate)” value was “low polyreactivity”.
In the case of “QVQLVESGGGLVQAGGSLRLSCAASGRIFAQYAMGWYRQAPGKERELVAGIDRRGGSTYYADSVKGRFTISRDNAKNTVYLQMNILKPEDTAVYYCAAYGTTGVYRGPGYDYWGQGTQVTVSS”, the “polyreactivity (PSR sort gate)” value is reported as “low polyreactivity”.
In the case of “QVQLVESGGGLVQAGGSLRLSCAASGFTFGHYAMGRYRQAPGKERELVAAIRWSGGSTYYADSVKGRFTISRDNAKNTVYLQMNSLKPEDTAVYYCAADGEDSLWTGYDYDYWGQGTQVTVSS”, the “polyreactivity (PSR sort gate)” value is reported as “low polyreactivity”.
With “QVQLVESGGGLVQAGGSLRLSCAASGIIFDLYAMGWYRQAPGKERELVAAITYGGGSTYYADSVKGRFTISRDNAKHTVYLQMNSLQPEDTAVYYCAAVPRSGMYYWGQGTQVTVSS” the “polyreactivity (PSR sort gate)” value was “high polyreactivity”.
With “QVQLVESGGGLVQAGGSLRLSCAASGITFGPYAMGWYRQAPGKERELVATISSSGGSTYYADSVKGRFTISRDNAKNTVYLQMNSLKPEDTAVYYCAAEYYVISSPSFYEYDYWGQGTQVTVSS” the “polyreactivity (PSR sort gate)” value was “low polyreactivity”.
With “QVQLVESGGGLVQAGGSLRLSCAASGRISGYNAMGWYRPAPGKQRELVAVITGSGGTYYADSVKGRFTISRDNAKNTVYLQMNSLKPEDSAVYYCAAGLAIRTYYPRYDYWGQGTQVTVSS” the “polyreactivity (PSR sort gate)” value was “low polyreactivity”.
With “QVQLVESRGGLVQAGGSLRLSCAASGSIFLYAMGWYRQEPGKQRELVAAISGGGRTNYADSVKGRFTISRDNAKNTVYLQMNSMKPEDTAVYYCAADPVYWYSPMDYWGQGTQVTVSS” the “polyreactivity (PSR sort gate)” value was “low polyreactivity”.
For “QVQLVESGGGLVQAGGSLRLSCAASGSILGVYAMGWYRQAPGKERELVAAISSGGRTYYADSVKGRFTISRDNAKNTVYLQMNSLKPEDTAVYYCNAVSGSFLKYSRYYWGQGTQVTVSS”, the “polyreactivity (PSR sort gate)” value was “high polyreactivity”.
In the case of “QVQLVESGGGLVQAGGSLRLSCAASGSTFWGYGMGWYRQAPGKERELVATINQSAGSTYYADSVKGRFTISRDNAKNTVYLQLNSLNPEDPAAYYCATDLIQGAAPFRYDYWGQGTQVTVSS”, the “polyreactivity (PSR sort gate)” value is reported as “low polyreactivity”.
For “QVQLVESGGGLVQAGGSLRLSCAASGRTFYTVYAMGWYRQAPGKERELVAAITRSGGSTYYADSVKGRFTISRDNAKNTLYLQMNSLKPEDTAVYYCAAAPPLAGLGGYYWGQGTQVTVSS”, the “polyreactivity (PSR sort gate)” value was “high polyreactivity”.
In the case of “QVQLVESGGGLVQAGGSLRLSCAASGFTFIRSAMGWYRQAPGKGRELVAAITVSGTRTYYADSVKGRFTISRDNAKNTVYLQMNSLKPEDTAVYYCNARDVYTGYGMGYWGQGTQVTVSS”, the “polyreactivity (PSR sort gate)” value is reported as “high polyreactivity”.
For “QVQLVESGGGLVQAGGSLRLSCDASGSTFGYYTMVWYRPSPGKERELVAAISSSGGSTYYADSVKGRFTISRDNAKNTVYLQMYSLKPEDTAVYYCNAEYGFYRAGSRGEYWGQGTQVTVSS”, the “polyreactivity (PSR sort gate)” value was “low polyreactivity”.
For “QVQLVESGGGLVQAGGSLRLSCAASGLTCRYNAMGWYRQAPGKERELVAGIRISGGNTRYADAVKGRCTISRDNAKKSVYLQMNSLKPEDTAVYYCSALTGFYNLRPYGYWGQGTQVTVSS”, the “polyreactivity (PSR sort gate)” value was “high polyreactivity”.
In the case of “QVQLVESGGGLVQAGGSLRLSCAASGGTFGYYAMGWYRQAPGKERELVAAINRSDGGTYYADSVKGRFTISRDNAKNTVYLQMNSLKPEDTAVYYCNADDFYYDEPYDYWGQGTQVTVSS”, the “polyreactivity (PSR sort gate)” value is reported as “low polyreactivity”.
For “QVQLVESGGGLVQAGGSLRLTCAASGIIFRLNAMGWYRQAPGKERELVAAIRRRGGSTYYADSVKGRFTISRDYAKNTVYLQMNSLKPADTAVYYCAKEPDGSDFGYWGQGTQVTESS”, the “polyreactivity (PSR sort gate)” value was “low polyreactivity”.
In the case of “QVQLVESGGGLVQAGGSLRLSCAASGGTFVYYTMGWYRQAPGKERELVAAISGRGGRTYYADSVKGRFTISRDNAKNTVYLQMNSLKPEDTAVYYCTATQIGPYYLPFDSWGQGTQVTVSS”, the “polyreactivity (PSR sort gate)” value is reported as “high polyreactivity”.
In the case of “QVQLVESGGGLVQAGGSLRLSCAASGRIFPYYAKGWYRQAPGKERELVAAINSGGSTYYADSVKGRFTISRDNAQNTVYLQMNSLKPEDTAVYYCIADVLYEDGFFWDDYWGQGTQVTVSS”, the “polyreactivity (PSR sort gate)” value is reported as “low polyreactivity”.
With “QVQLVESGGGLVQAGGSLRLSCAASGLIFTDYVMGWYRQAPGKEREFVAAITGSAGRTYYADSVKGRFTISRDNAKNTVYLQMNSLKPEDTAVYYCNADYWWWHEYDYWGQGTQVTVSS” the “polyreactivity (PSR sort gate)” value was “high polyreactivity”.
For “QVQLVESGGGLVQAGGSLRLSCAASGRIFTFYAMGWYRQAPGKERELVAAISSGGSTYYADSVKGRFTISRDNAKNTVYLQMHSLKPEDTAVYYCAAEPVWYADYDYWGQGTQVTVSS”, the “polyreactivity (PSR sort gate)” value was “low polyreactivity”.
In the case of “QVQLVESGGGLVQAGGSLRLSCAASGYIFPFYAMGWYRQAPGKQRELVAAITESGGSTYYADSVKGRFTISRDNAKNNVYLQMNSLKPEDTAVYYCAKEVVKHPRGKLDYWGQGTQVTLSS”, the “polyreactivity (PSR sort gate)” value is reported as “low polyreactivity”.
For “QVQLVESGGGLVQAGGSLRLSCAASGSIFGISTMGWYRQAPGKERELVAAITSGDRTSYADSVKGRFTISRDNAKNTVYLQMNTLKPEDTAVYYCARDYYSYRYLRYDYWGQGTQVTVSS”, the “polyreactivity (PSR sort gate)” value was “low polyreactivity”.
With “QVQLVESGGGLVQAGGSLRIICAASGRTFRGYAMGWYRQAPGKERELVAAITSGGSTNYADSVKGRFTISRDNAKNTVYLQMHSLKPEDTAVYYCNRDTSKYGLWRYIYDYWGQGTQVTVSS” the “polyreactivity (PSR sort gate)” value was “low polyreactivity”.
In the case of “QVQLVESGGGLVQAGGSLRLSCAASGFIFSWYAMGWYRQAPGKERELVATISSSGGRTHYADSVKGRFTISRDNAKNTVYLQMNSLKPEDTAVYYCAAQPFSYFTTVYYWGQGTQVTVSS”, the “polyreactivity (PSR sort gate)” value is reported as “high polyreactivity”.
With “QVQLVESGGGLFQAGGSLRLSCAASGSIFRYNTMGWYRHAPGKESELVARISSGGSTYYADSVKGRFTISRDNAKNTVYLQMNSLKPEDTAVYYCAAVSRHRGWDRYYWGQGTQVTVSS” the “polyreactivity (PSR sort gate)” value was “high polyreactivity”.
With “QVQLVESGGGLVQAGGSLRLSCAASGYTFRRYAMGWYRQAPGKERELVAGITRTGNTNYADSVKGRFTISRDNAKNTVYLQMNSLKPEDTAVYYCARDLGGYKRLYDYWGQGTQVTVSS” the “polyreactivity (PSR sort gate)” value was “high polyreactivity”.
